PMC10602183 (2023)

How the values were obtained:
Assay in all cases: SPR
[1] = target: autologous gp120 antigen Czm (HIV-1 clade C isolate 96ZM652)
[2] = target: autologous gp120 antigen A2 (HIV-1 clade A isolate 92UG037.8)
[3] = target: wild type gp120 Env protein AE (HIV-1 clade E isolate 93TH976.17)
[4] = target: autologous gp120 antigen B (HIV-1 clade B isolate 92US715.6)
Bal gp120 [5] = target: T1, Bal gp120 (HIV-1 clade B isolate Bal)
Bal gp120 [6] = target: T1, Bal gp120; remark: listed apart in the source

B1: HmAb64 (antibody, V domains shown)
VH: QVQLVQSGAEVKKPGASVKVSCKASGYTFTSYDITWVRQAPGQGLEWMGWISAYNGDTNYAQRLQGRVTMTTDTSTSTAYMELRSLRSDDTAVYYCARAKHTVLVTAMRWFDPWGQGTLVTVSS
VL: DIQMTQSPSSLSASVGDRVTITCRASQSISNYLNWYQQKPGKAPKLLISATSSLQSGVPSRFSGSGSGTDFTLTISSLQPDDFATYYCQQSYSTPWTFGQGTKLEIK
Kd [1]: 22.5 nM
koff [1]: 0.000454 s⁻¹
Kd [2]: 39.4 nM
koff [2]: 0.000641 s⁻¹
Kd [3]: 20 nM
koff [3]: 0.000423 s⁻¹
Kd [4]: 22.9 nM
koff [4]: 0.000684 s⁻¹
koff (Bal gp120 [5]): 0.000459 s⁻¹
Kd (Bal gp120 [6]): 16 nM
